Data from PMC3779476 (Nature, 2013).

Target: the molecule itself
Experiment: native gel or EMSA

B1: LamB (natural protein)
chain: VDFHGYARSGIGWTGSGGEQQCFQTTGAQSKYRLGNECETYAELKLGQEVWKEGDKSFYFDTNVAYSVAQQNDWEATDPAFREANVQGKNLIEWLPGSTIWAGKRFYQRHDVHMIDFYYWDISGPGAGLENIDVGFGKLSLAATRSSEAGGSSSFASNNIYDYTNETANDVFDVRLAQMEINPGGTLELGVDYGRANLRDNYRLVDGASKDGWLFTAEHTQSVLKGFNKFVVQYATDSMTSQGKGLSQGSGVAFDNEKFAYNINNNGHMLRILDHGAISMGDNWDMMYVGMYQDINWDNDNGTKWWTVGIRPMYKWTPIMSTVMEIGYDNVESQRTGDKNNQYKITLAQQWQAGDSIWSRPAIRVFATYAKWDEKWGYDYTGNADNNANFGKAVPADFNGGSFGRGDSDEWTFGAQMEIWW
  stoichiometry N: 3
